Consider two molecules from patent publication US20020133001A1, “Therapeutic agents and methods of use thereof for treating an amyloidogenic disease” (Praecis Pharmaceuticals Inc., priority 2000, published 2002).

Data set [1] has as its target T1, Aβ fibrils (aged Aβ 1-40) (Homo sapiens, UniProt P05067).
T1 construct: 200 μM Aβ 1-40 peptide solution; purchased Bachem (Torrance, Calif.)
Put plainly: Fibril binding assay. The note with it: compound at 2 μM-200 fM dilutions; FIG. 9. The procedure:
The ability of a compound of the invention to modulate (e.g., inhibit or promote) the aggregation of natural β-AP when combined with the natural β-AP was examined using the Fibril binding assay. Natural β-AP (β-AP1-40) for use in the aggregation assays is commercially available from Bachem (Torrance, Calif.).
The following materials are needed for the Fibril binding assay: Millipore multifilter apparatus; 12×75 glass tubes; GF/F 25 mm glass filters; PBS/0.1% tween 20 at 4° C. (PBST); Aβ fibrils; radioactive compound; nonradioactive compound; Eppendorf repeat pipettor with tips; labels; forceps; and vacuum.
In this assay, each sample was run in triplicate. […]
The radioactively labeled compound was prepared using standard radioactive safety protocols by making a dilution into a PBS/0.1% tween-20 solution such that there was a final concentration of 20,000 dpm per 100 μL. […] The samples were covered with parafilm and incubated at 37° C. inside plastic radioactivity bags overnight.
To filter the samples, the filters were pre-wetted in a small volume of PBST. […] One minute counts were recorded, the data was plotted, and the Prism program (GraphPAD) was used to analyze the graph, according to the manufacturer's instructions.

In data set [2] the test system is amyloid plaques. Nature of the data set: Immunohistochemistry: staining of amyloid plaques in brain sections with conditioned medium containing fusion proteins. It is filed as binding. The note with it: 20-22 week mice transgenic for Swedish mutation APP and presenilin M146L; COS conditioned medium; developed with anti-mouse antibody. Here is the method: Twenty micron serial coronal brain sections were prepared from 20-22 week mice transgenic for both the Swedish mutation of amyloid precursor protein and presenilin M146L (Ref.). All incubations were performed at room temperature. Sections were washed once in 100 mM Tris, pH 7.4 (Tris buffer), incubated in 70% formic acid for 3 minutes, then washed three times in Tris buffer. Endogenous peroxidase activity was blocked by incubating for 20 minutes in 10% methanol, 3% hydrogen peroxide in 40 mM Tris, pH 7.4. Sections were washed three times in Tris buffer then incubated in 0.85% NaCl, 0.1% Triton X-100, 100 mM Tris pH 7.4 (Tris buffer A) for 5 minutes followed by […]) for 15 minutes. Sections were incubated overnight in conditioned medium from cells expressing secreted fusion proteins or anti-β-amyloid polyclonal antibody diluted 1/1000 in Tris buffer B. Sections were washed twice in Tris buffer A and once in Tris buffer B then incubated with biotin-conjugated anti-mouse antibody raised in donkey from Jackson Laboratories diluted 1/500 in Tris buffer A for 1 hour. Sections were washed twice in Tris buffer A and once in Tris buffer B then incubated with avidin-conjugated horse radish peroxidase using the ABC Immunohistochemistry kit from Vector Laboratories. […]

Data set [3] relates to amyloid plaques. Put plainly: In vivo clearing of amyloid plaques in a mouse model of Alzheimer's disease. The note with it: direct infusion into the cerebral cortex in one hemisphere; APP Swedish/presenilin M146L transgenic mouse. Here is the method: The ability of Aβ(16-30)-Fc to clear amyloid plaques in a mouse model of Alzheimer's disease was assessed. The fusion protein was administered to a mouse transgenic for both the Swedish mutation of amyloid precursor protein and presenilin M146L by direct infusion into the cerebral cortex in one hemisphere. The mouse was sacrificed and the amount of amyloid in brain sections was determined by Thioflavin S staining.

Sequence of amyloid plaques (P05067 672-711 limits assumed): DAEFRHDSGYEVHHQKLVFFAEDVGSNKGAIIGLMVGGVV
T1 sequence (P05067 672-711): as the sequence (P05067 672-711 limits assumed) above

For the molecule “PPI-1019: compound tested in the Fibril binding assay; structure not given”, in data set [1], the “inhibition of Aβ aggregation (Fibril binding assay)” value is listed as “effective inhibitors of Aβ aggregation”.

B1: Fc domain without a β-amyloid fragment: control protein: mouse IgG1 Fc region with no amyloid binding sequence (protein)
chain: VPRDCGCKPCICTVPEVSSVFIFPPKPKDVLTITLTPKVTCVVVDISKDDPEVQFSWFVDDVEVHTAQTQPREEQFNSTFRSVSELPIMHQDWLNGKEFKCRVNSAAFPAPIEKTISKTKGRPKAPQVYTIPPPKEQMAKDKVSLTCMITDFFPEDITVEWQWNGQPAENYKNTQPIMNTNGSYFVYSKLNVQKSNWEAGNTFTCSVLHEGLHNHHTEKSLSHSPGK
Regarding B1, in the data set with amyloid plaques [2], the “staining of amyloid plaques in coronal brain sections” value is recorded as “No amyloid plaques were detected”. Besides, the “plaque burden at the site of infusion compared to the control hemisphere (Thioflavin S staining)” value in the data set with amyloid plaques [3] is recorded as “no difference”.
